Experiments:
[1] = target: T1, human CD134 (full-length, on cells) (human, UniProt P43489 29-277); test: competition flow cytometry, stable CD134 293-F clone no. 5; competitor biotinylated mouse 12H3 at 700 ng/mL
T1 construct: also called OX40; TNFRSF4
T1 sequence: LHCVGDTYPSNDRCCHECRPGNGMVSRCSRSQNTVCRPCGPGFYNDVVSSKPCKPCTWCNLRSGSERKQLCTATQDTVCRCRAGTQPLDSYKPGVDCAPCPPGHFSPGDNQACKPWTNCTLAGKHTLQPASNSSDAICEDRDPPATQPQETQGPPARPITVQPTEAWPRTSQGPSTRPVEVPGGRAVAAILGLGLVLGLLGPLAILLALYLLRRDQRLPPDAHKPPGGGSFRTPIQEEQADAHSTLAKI
Experimental: Full-length human CD134 (SEQ ID NO1) was re-cloned in a pcDNA3.1-derived expression plasmid (see Example 11 (c) above). […] After extensive washing in PBS/BSA/NaN₃, cells were fixed in 2% formaldehyde in PBS/BSA/NaN₃ for 30 minutes at 4° C.

[2] = target: T2, human CD134-derived peptide (truncated CRD3 A1-module-CRD4 subdomain A1-module) (human); test: peptide ELISA, 10 ng/well peptide coated
T2 construct: Synthesized by Pepscan Presto; coated on ELISA plates
T2 peptide: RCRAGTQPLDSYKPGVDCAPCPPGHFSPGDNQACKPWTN
Experimental: (§1) After adding 1 M […], optical densities was measured at a wavelength of 450 nm (reference wavelength of 655 nm) using a microplate reader (BioRad).
(§2) Ninety six-wells flat-bottom ELISA plates (Corning) were coated with 10 ng/well human CD134-derived peptide (synthesized by Pepscan Presto, Lelystad, The Netherlands), which corresponded to amino acid sequence of truncated CRD3 A1-module-CRD4 subdomain A1 module (see SEQ ID NO. 38) or with 10 ng/well human fibronectin-derived control peptide (synthesized by Pepscan Presto, Lelystad, The Netherlands), which corresponded to amino acid sequence of extra type III structural domain (see SEQ ID NO. 37) in PBS o/n at 4° C. After extensive washing in PBS/0.05% Tween 20, plates were blocked in PBS/0.05% Tween 20/1% BSA fraction V (Roche) for 1 hour at RT. […] After extensive washing in PBS/0.05% Tween 20, binding of antibodies was determined with 1:5000 diluted horseradish peroxidase-conjugated goat anti-human IgG Fcγ-specific antibodies (Jackson ImmunoResearch) for 1 hour at RT, followed by a ready-to-use solution of TMB substrate (Invitrogen) for colorimetric detection. After adding 1 M H₂SO₄, optical densities was measured at a wavelength of 450 nm (reference wavelength of 655 nm) using a microplate reader (BioRad).

[3] = target: T3, recombinant human CD134:human Fcγ (IgG1) fusion protein (human, UniProt P01857-1 100-330 = IgG part, limits assumed); test: competition ELISA, plate-bound CD134:Fc; competitor biotinylated mouse 12H3 at 20 ng/mL
T3 construct: domain: Fcγ (IgG1); Bought (R&D Systems); also called rhuCD134
Experimental: Ninety six-wells flat-bottom ELISA plates (Corning) were coated with 50 ng/well recombinant human CD134:human Fcγ (IgG1) fusion protein (R&D Systems) in PBS o/n at 4° C. After extensive washing in PBS/0.05% Tween 20, plates were blocked in PBS/0.05% Tween 20/1% BSA fraction V (Roche) for 1 hour at RT. […] After adding 1 M H₂SO₄, optical densities were measured at a wavelength of 450 nm (reference wavelength of 655 nm) using a microplate reader (BioRad).

[4] = target: T1, human CD134 (full-length, on cells); test: flow cytometry, stable CD134 293-F clone no. 23
Experimental: Full-length human CD134 (SEQ ID NO. 1) was re-cloned in a pcDNA3.1-derived expression plasmid (see Example 11 (d) below). […] After extensive washing in PBS/BSA/NaN₃, cells were subsequently incubated with 1:200 diluted PE-conjugated goat anti-mouse IgG (Fcγ specific) antibodies (Jackson ImmunoResearch) or with 1:200 diluted PE-conjugated goat anti-human IgG (Fcγ specific) antibodies (Jackson ImmunoResearch) for 30 minutes at 4° C. After extensive washing in PBS/BSA/NaN₃, cells were fixed in 2% formaldehyde in PBS/BSA/NaN₃ for 30 minutes at 4° C. Binding of antibodies was measured using flow cytometry (FACSCalibur; BD Biosciences).

[5] = target: T1, human CD134 (full-length, on cells); test: flow cytometry, PHA-stimulated human CD3+ T lymphocytes
[6] = target: T1, human CD134 (full-length, on cells); test: flow cytometry, stable CD134 293-F clone no. 5, biotinylated antibody detected with streptavidin-PE
[7] = target: T4, truncated human CD134 'truncated (tc) CRD4' construct (human, UniProt P43489 147-277); test: flow cytometry, transiently transfected 293-F cells
T4 construct: also called truncated CRD4
T4 sequence: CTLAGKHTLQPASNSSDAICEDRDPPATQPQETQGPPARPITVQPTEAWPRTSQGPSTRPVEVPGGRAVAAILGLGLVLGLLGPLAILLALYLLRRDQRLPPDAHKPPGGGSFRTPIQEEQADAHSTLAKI
Experimental: After 48 h, surface human CD134 expression on transfected cells was analyzed by FACS analysis. To this end, transfected cells were harvested and put at 1-2×10⁶ cells/mL in ice-chilled PBS/BSA/NaN₃ supplemented with 50 μg/mL purified human IgG (Sigma; blocking Fey receptors). […] After extensive washing in PBS/BSA/NaN₃, cells were subsequently incubated with 1:200 diluted PE-conjugated goat anti-mouse IgG (Fcγ specific) antibodies (Jackson ImmunoResearch) or with 1:200 diluted PE-conjugated goat anti-human IgG (Fcγ specific) antibodies (Jackson ImmunoResearch) for 30 minutes at 4° C. […] After extensive washing in PBS/BSA/NaN₃, cells were subsequently incubated with 1:200 diluted PE-conjugated goat anti-mouse IgG (Fcγ specific) antibodies (Jackson ImmunoResearch) for 30 minutes at 4° C. After extensive washing in PBS/BSA/NaN₃, cells were fixed in 2% formaldehyde in PBS/BSA/NaN₃ for 30 minutes at 4° C. Binding of antibodies was measured using flow cytometry (FACSCalibur; BD Biosciences).

[8] = target: T3, recombinant human CD134:human Fcγ …; test: ELISA, plate-bound CD134:Fc, biotinylated antibody detected with streptavidin-HRP
[9] = target: T5, human fibronectin-derived control peptide (extra type III structural domain) (human); test: peptide ELISA
T5 construct: Synthesized by Pepscan Presto; coated on ELISA plates
T5 peptide: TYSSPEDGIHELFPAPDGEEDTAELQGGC
Experimental: as §1, §2

IC50 [1]: ~3.5 µg/mL
binding result [2]: binds
IC50 [3]: ~0.75 µg/mL
EC50 [4]: > 0.2 µg/mL
EC50 [5]: ~0.5 µg/mL
EC50 [6]: ~0.7 µg/mL
binding result [7]: no binding (tested: 20.0 µg/mL)
EC50 [8]: ~0.02 µg/mL
binding result [9]: no binding (tested: 50.0 µg/mL)
B1: mouse anti-human CD134 monoclonal antibody clone 12H3 (antibody, V domains shown)
VH: EVQLQQSGPELVKPGASVKISCKTSGYTFKDYTMHWVKQSHGKSLEWIGGIYPNNGGSTYNQNFKDKATLTVDKSSSTAYMEFRSLTSEDSAVYYCARMGYHGPHLDFDVWGAGTTVTVSP
VL: DIVMTQSHKFMSTSLGDRVSITCKASQDVGAAVAWYQQKPGQSPKLLIYWASTRHTGVPDRFTGGGSGTDFTLTISNVQSEDLTDYFCQQYINYPLTFGGGTKLEIKR
notes: also called m12H3; parental mouse anti-human CD134 antibody clone 12H3
